Results published in patent US20220041718A1 (AUTOLUS, published 2022).
Changes are numbered by the printed parent chain. Names and notes keep the numbering of the source.

B1: hJovi-1 variant IgG, VH T28K, Y32F, A100N; VL unmutated (antibody, V domains shown)
VH: QVQLVQSGAEVKKPGASVKVSCKASGYKFTGFVMHWVRQAPGQGLEWMGFINPYNDDIQSNERFRGRVTMTRDTSISTAYMELSRLRSDDTAVYYCARGNGYNFDGAYRFFDFWGQGTMVTVSS
VL: DIVMTQSPLSLPVTPGEPASISCRSSQRLVHSNGNTYLHWYLQKPGQSPRLLIYRVSNRFPGVPDRFSGSGSGTDFTLKISRVEAEDVGVYYCSQSTHVPYTFGQGTKLEIK
notes: IgG format; also called anti-TRBC2 triple mutant
B2: hJovi-1 variant IgG, VH T28K, Y32F, A100N, N103E; VL unmutated (antibody, V domains shown)
VH: B1 VH with N103E
VL: B1 VL
notes: IgG format
B3: hJovi-1 variant IgG, VH N103L, T28K, Y32F, A100N; VL N35F (antibody, V domains shown)
VH: B1 VH with N103L
VL: B1 VL with N35F
notes: IgG format
B4: hJovi-1 variant IgG, VH T28K, Y32F, A100N, N103M; VL unmutated (antibody, V domains shown)
VH: B1 VH with N103M
VL: B1 VL
notes: IgG format
B5: hJovi-1 variant IgG, VH T28K, Y32F, A100N, N103S; VL unmutated (antibody, V domains shown)
VH: B1 VH with N103S
VL: B1 VL
notes: IgG format
B6: hJovi-1 variant IgG, VH N103S, T28K, Y32F, A100N; VL N35Y (antibody, V domains shown)
VH: B1 VH with N103S
VL: B1 VL with N35Y
notes: IgG format
B7: hJovi-1 variant IgG, VH N103L, T28K, Y32F, A100N; VL N35R (antibody, V domains shown)
VH: B1 VH with N103L
VL: B1 VL with N35R
notes: IgG format
B8: hJovi-1 variant IgG, VH N103F, T28K, Y32F, A100N; VL N35F (antibody, V domains shown)
VH: B1 VH with N103F
VL: B1 VL with N35F
notes: IgG format
B9: hJovi-1 variant IgG, VH T28K, Y32F, A100N, N103M; VL N35R (antibody, V domains shown)
VH: B1 VH with N103M
VL: B1 VL with N35R
notes: IgG format
B10: hJovi-1 variant IgG, VH T28K, Y32F, A100N, N103F; VL unmutated (antibody, V domains shown)
VH: B1 VH with N103F
VL: B1 VL
notes: IgG format
B11: hJovi-1 variant IgG, VH T28K, Y32F, A100N, N103M; VL N35Y (antibody, V domains shown)
VH: B1 VH with N103M
VL: B1 VL with N35Y
notes: IgG format
B12: hJovi-1 variant IgG, VH N103F, T28K, Y32F, A100N; VL N35M (antibody, V domains shown)
VH: B1 VH with N103F
VL: B1 VL with N35M
notes: IgG format
B13: hJovi-1 variant IgG, VH N103W, T28K, Y32F, A100N; VL N35K (antibody, V domains shown)
VH: B1 VH with N103W
VL: B1 VL with N35K
notes: IgG format
B14: hJovi-1 variant IgG, VH N103L, T28K, Y32F, A100N; VL N35Y (antibody, V domains shown)
VH: B1 VH with N103L
VL: B1 VL with N35Y
notes: IgG format
B15: hJovi-1 variant IgG, VH N103L, T28K, Y32F, A100N; VL N35K (antibody, V domains shown)
VH: B1 VH with N103L
VL: B1 VL with N35K
notes: IgG format
B16: hJovi-1 variant IgG, VH N103W, T28K, Y32F, A100N; VL N35M (antibody, V domains shown)
VH: B1 VH with N103W
VL: B1 VL with N35M
notes: IgG format
B17: hJovi-1 variant IgG, VH N103S, T28K, Y32F, A100N; VL N35F (antibody, V domains shown)
VH: B1 VH with N103S
VL: B1 VL with N35F
notes: IgG format
B18: hJovi-1 variant IgG, VH T28K, Y32F, A100N, N103W; VL unmutated (antibody, V domains shown)
VH: B1 VH with N103W
VL: B1 VL
notes: IgG format
B19: hJovi-1 variant IgG, VH N103W, T28K, Y32F, A100N; VL N35F (antibody, V domains shown)
VH: B1 VH with N103W
VL: B1 VL with N35F
notes: IgG format
B20: hJovi-1 variant IgG, VH N103F, T28K, Y32F, A100N; VL N35Y (antibody, V domains shown)
VH: B1 VH with N103F
VL: B1 VL with N35Y
notes: IgG format
B21: hJovi-1 variant IgG, VH T28K, Y32F, A100N, N103H; VL unmutated (antibody, V domains shown)
VH: B1 VH with N103H
VL: B1 VL
notes: IgG format
B22: hJovi-1 variant IgG, VH N103M, T28K, Y32F, A100N; VL N35F (antibody, V domains shown)
VH: B1 VH with N103M
VL: B1 VL with N35F
notes: IgG format
B23: hJovi-1 variant IgG, VH T28K, G31R, Y32F, A100N; VL unmutated (antibody, V domains shown)
VH: B1 VH with G31R
VL: B1 VL
notes: IgG format
B24: hJovi-1 variant IgG, VH N103S, T28K, Y32F, A100N; VL N35K (antibody, V domains shown)
VH: B1 VH with N103S
VL: B1 VL with N35K
notes: IgG format
B25: hJovi-1 variant IgG, VH T28K, Y32F, A100N, N103M; VL N35M (antibody, V domains shown)
VH: B1 VH with N103M
VL: B1 VL with N35M
notes: IgG format
B26: hJovi-1 variant IgG, VH N103E, T28K, Y32F, A100N; VL N35M (antibody, V domains shown)
VH: B1 VH with N103E
VL: B1 VL with N35M
notes: IgG format
B27: hJovi-1 variant IgG, VH T28K, Y32F, A100N, Y102F, N103M; VL N35F (antibody, V domains shown)
VH: B1 VH with Y102F, N103M
VL: B1 VL with N35F
notes: IgG format
B28: hJovi-1 variant IgG, VH N103S, T28K, Y32F, A100N; VL N35R (antibody, V domains shown)
VH: B1 VH with N103S
VL: B1 VL with N35R
notes: IgG format
B29: hJovi-1 variant IgG, VH N103S, T28K, Y32F, A100N; VL N35M (antibody, V domains shown)
VH: B1 VH with N103S
VL: B1 VL with N35M
notes: IgG format
B30: hJovi-1 variant IgG, VH T28K, Y32F, A100N, N103F; VL N35K (antibody, V domains shown)
VH: B1 VH with N103F
VL: B1 VL with N35K
notes: IgG format
B31: hJovi-1 variant IgG, VH T28K Y32F A100N; VL R55K (antibody, V domains shown)
VH: B1 VH
VL: B1 VL with R55K
notes: IgG format
B32: hJovi-1 variant IgG, VH T28K, Y32F, A100N, A107S; VL unmutated (antibody, V domains shown)
VH: B1 VH with A107S
VL: B1 VL
notes: IgG format
B33: hJovi-1 variant IgG, VH T28K, Y32F, A100N, N103A; VL unmutated (antibody, V domains shown)
VH: B1 VH with N103A
VL: B1 VL
notes: IgG format
B34: hJovi-1 variant IgG, VH G31R, Y32F, A100N; VL unmutated (antibody, V domains shown)
VH: B1 VH with K28T, G31R
VL: B1 VL
notes: IgG format
B35: hJovi-1 variant IgG, VH T28K, Y32F, A100N, N103Y; VL unmutated (antibody, V domains shown)
VH: B1 VH with N103Y
VL: B1 VL
notes: IgG format
B36: hJovi-1 variant IgG, VH G31S, T28K, Y32F, A100N; VL unmutated (antibody, V domains shown)
VH: B1 VH with G31S
VL: B1 VL
notes: IgG format
B37: hJovi-1 variant IgG, VH N103L, T28K, Y32F, A100N; VL N35M (antibody, V domains shown)
VH: B1 VH with N103L
VL: B1 VL with N35M
notes: IgG format
B38: hJovi-1 variant IgG, VH N103W, T28K, Y32F, A100N; VL N35R (antibody, V domains shown)
VH: B1 VH with N103W
VL: B1 VL with N35R
notes: IgG format
B39: hJovi-1 variant IgG, VH T28K, Y32F, A100N, N103Q; VL unmutated (antibody, V domains shown)
VH: B1 VH with N103Q
VL: B1 VL
notes: IgG format
B40: hJovi-1 variant IgG, VH T28K, Y32F, A100N, N103L; VL unmutated (antibody, V domains shown)
VH: B1 VH with N103L
VL: B1 VL
notes: IgG format

Key:
[1] = target: T1, Recombinant purified TRBC2 (human, UniProt A0A5B9 1-129, limits assumed); assay: SPR, IgG captured on anti-human Fc, TRBC2 as analyte
T1 construct: Construct not described (may be a soluble TCR carrying TRBC2); also called TCR beta constant region 2; soluble recombinant biotinylated TRBC2
T1 sequence (A0A5B9 1-129 limits assumed): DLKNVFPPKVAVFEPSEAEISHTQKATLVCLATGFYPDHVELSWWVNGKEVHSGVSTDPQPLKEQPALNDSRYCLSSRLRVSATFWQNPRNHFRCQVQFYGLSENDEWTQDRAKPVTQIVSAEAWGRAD
Description: (§1) A series S CM5 sensor chip was immobilised via amine coupling, with an anti-human Fc capture antibody to a density of 9000-10000 RU, using a Biacore T200 instrument. HBS-P+ buffer was used as running buffer in all experimental conditions. The test anti-TRBC2 antibodies (Table 1) were captured on flow cells 2, 3 and 4 to a density of 100-300 RU. Recombinant purified TRBC1 or TRBC2 at known concentrations were used as the ‘analyte’ and injected over the respective flow cells with 150s contact time and 300s dissociation at 30 μl/minute of flow rate. In each experiment, flow cell 1 was unmodified and used for reference subtraction. A ‘0 concentration’ sensorgram of buffer alone was used as a double reference subtraction to factor for drift. Data were fit to a 1:1 Langmuir binding model. Since a capture system was used, a local Rₘₐₓ parameter was used for the data fitting in each case.

[2] = target: T2, Recombinant purified TRBC1 (human, UniProt P01850 1-129, limits assumed); assay: SPR, IgG captured on anti-human Fc, TRBC1 as analyte
T2 construct: Construct not described (may be a soluble TCR carrying TRBC1); also called TCR beta constant region 1; soluble recombinant biotinylated TRBC1
T2 sequence (P01850 1-129 limits assumed): as the sequence (A0A5B9 1-129 limits assumed) above, with K3N, N4K, K9E, Y36F counted along it
Description: as §1

Row | Binder | Kd [1] [nM] | Kd [2] [nM]
1 | B1 | 432 | 2730
2 | B2 | 1300 | 2930
3 | B3 | 369 | 1380
4 | B4 | 83.6 | 376
5 | B5 | 983 | 3540
6 | B6 | 1880 | 7830
7 | B7 | 201 | 810
8 | B8 | 459 | 1610
9 | B9 | 90.3 | 290
10 | B10 | 270 | 1060
11 | B11 | 172 | 733
12 | B12 | 130 | 459
13 | B13 | 417 | 1680
14 | B14 | 480 | 1930
15 | B15 | 187 | 707
16 | B16 | 611 | 2280
17 | B17 | 1560 | 6580
18 | B18 | 425 | 1650
19 | B19 | 510 | 1680
20 | B20 | 501 | 1860

Row | Binder | Kd [1] [nM] | Kd [2] [nM]
21 | B21 | 416 | 2020
22 | B22 | 130 | 459
23 | B23 | 4950 | 17400
24 | B24 | 851 | 3680
25 | B25 | 131 | 648
26 | B26 | 2130 | 5830
27 | B27 | 1320 | 11300
28 | B28 | 917 | 3930
29 | B29 | 1830 | 8220
30 | B30 | 294 | 881
31 | B31 | 165 | 962
32 | B32 | 1160 | 3590
33 | B33 | 714 | 3390
34 | B34 | 1360 | 3140
35 | B35 | 339 | 1580
36 | B36 | 1170 | 3680
37 | B37 | 364 | 1500
38 | B38 | 390 | 1730
39 | B39 | 484 | 1770
40 | B40 | 302 | 1280
